Reference: patent publication US20160115223A1

These substances were tested against Aβ42 fibers (UniProt P05067) (assay: cell-based or functional assay).
Aβ42 fibers, sequence (P05067 672-713 limits assumed): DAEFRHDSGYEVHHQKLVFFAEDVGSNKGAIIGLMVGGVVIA

| Substance | EC50, cellulose acetate filter retardation assay (disaggregation) [nM] |
| --- | --- |
| N1-N2-hIgG1-Fc fusion protein (SEQ ID NO:1) (from UniProt O34714 1-385) | 100 |

Each substance was assayed against Aβ42 fibers (UniProt P05067) (assay: ELISA, Aβ42 fibers on plate; IC50(variant)/IC50(SEQ ID NO: 3)).

| Substance | IC50 Relative to SEQ ID NO: 3 |
| --- | --- |
| N1-N2-human IgG Fc fusion protein of SEQ ID NO: 3 with M135A (from UniProt P69168 19-274) | 0.4 |
| N1-N2-human IgG Fc fusion protein of SEQ ID NO: 3 with R140D | 0.3 |
| N1-N2-human IgG Fc fusion protein of SEQ ID NO: 3 with M135H (from UniProt P69168 19-274) | 0.1 |
| N1-N2-human IgG Fc fusion protein of SEQ ID NO: 3 with R140H | 0.2 |
| N1-N2-human IgG Fc fusion protein of SEQ ID NO: 3 with M176K (from UniProt P69168 19-274) | 0.2 |
| N1-N2-human IgG Fc fusion protein of SEQ ID NO: 3 with F141D | 0.2 |
| N1-N2-human IgG Fc fusion protein of SEQ ID NO: 3 with T51G (from UniProt P69168 19-274) | 0.8 |
| N1-N2-human IgG Fc fusion protein of SEQ ID NO: 3 with T56G | 0.1 |
| N1-N2-human IgG Fc fusion protein of SEQ ID NO: 3 with S173P | 0.4 |
| N1-N2-human IgG Fc fusion protein of SEQ ID NO: 3 with R140E | 0.3 |
| N1-N2-human IgG Fc fusion protein of SEQ ID NO: 3 with Y54H | 0.3 |
| N1-N2-human IgG Fc fusion protein of SEQ ID NO: 3 with M176R | 0.2 |
| N1-N2-human IgG Fc fusion protein of SEQ ID NO: 3 with Y54P | 0.07 |
| N1-N2-human IgG Fc fusion protein of SEQ ID NO: 3 with M135D (from UniProt P69168 19-274) | 0.5 |
| N1-N2-human IgG Fc fusion protein of SEQ ID NO: 3 with T51H (from UniProt P69168 19-274) | 1.5 |
| N1-N2-human IgG Fc fusion protein of SEQ ID NO: 3 with D178S | 0.3 |
| N1-N2-human IgG Fc fusion protein of SEQ ID NO: 3 with M176N (from UniProt P69168 19-274) | 0.5 |
| N1-N2-human IgG Fc fusion protein of SEQ ID NO: 3 with M176G | 0.3 |
| N1-N2-human IgG Fc fusion protein of SEQ ID NO: 3 with G48K (from UniProt P69168 19-274) | 1.1 |
| N1-N2-human IgG Fc fusion protein of SEQ ID NO: 3 with W181H | 0.87 |
| N1-N2-human IgG Fc fusion protein of SEQ ID NO: 3 with G48H | 1.8 |
| N1-N2-human IgG Fc fusion protein of SEQ ID NO: 3 with T51Q | 0.8 |

| Substance | IC50 Relative to SEQ ID NO: 3 |
| --- | --- |
| N1-N2-human IgG Fc fusion protein of SEQ ID NO: 3 with R140A | 0.2 |
| N1-N2-human IgG Fc fusion protein of SEQ ID NO: 3 with T56H | 0.77 |
| N1-N2-human IgG Fc fusion protein of SEQ ID NO: 3 with R140G (from UniProt P69168 19-274) | 0.2 |
| N1-N2-human IgG Fc fusion protein of SEQ ID NO: 3 with T56R (from UniProt P69168 19-274) | 0.8 |
| N1-N2-human IgG Fc fusion protein of SEQ ID NO: 3 with T51N | 0.5 |
| N1-N2-human IgG Fc fusion protein of SEQ ID NO: 3 with T51P | 0.2 |
| N1-N2-human IgG Fc fusion protein of SEQ ID NO: 3 with M176H | 0.4 |
| N1-N2-human IgG Fc fusion protein of SEQ ID NO: 3 with D178T | 0.4 |
| N1-N2-human IgG Fc fusion protein of SEQ ID NO: 3 with T51K | 2.5 |
| N1-N2-human IgG Fc fusion protein of SEQ ID NO: 3 with D178G (from UniProt P69168 19-274) | 0.2 |
| N1-N2-human IgG Fc fusion protein of SEQ ID NO: 3 with W181G | 0.5 |
| N1-N2-human IgG Fc fusion protein of SEQ ID NO: 3 with M135G | 0.2 |
| N1-N2-human IgG Fc fusion protein of SEQ ID NO: 3 with W181K | 0.3 |
| N1-N2-human IgG Fc fusion protein of SEQ ID NO: 3 with D178Q | 0.6 |
| N1-N2-human IgG Fc fusion protein of SEQ ID NO: 3 with F141E (from UniProt P69168 19-274) | 0.2 |
| N1-N2-human IgG Fc fusion protein of SEQ ID NO: 3 with S173G (from UniProt P69168 19-274) | 0.2 |
| N1-N2-human IgG Fc fusion protein of SEQ ID NO: 3 with T51R | 2 |
| N1-N2-human IgG Fc fusion protein of SEQ ID NO: 3 with G48R (from UniProt P69168 19-274) | 1.9 |
| N1-N2-human IgG Fc fusion protein of SEQ ID NO: 3 with M135N (from UniProt P69168 19-274) | 0.3 |
| N1-N2-human IgG Fc fusion protein of SEQ ID NO: 3 with G48S | 1.2 |
| N1-N2-human IgG Fc fusion protein of SEQ ID NO: 3 with G48T | 1 |
| N1-N2-human IgG Fc fusion protein of SEQ ID NO: 3 with M135R (from UniProt P69168 19-274) | 0.1 |
